Test [1] has as its target Nucleolysin TIA-1 (endogenous mouse TIA1) (mouse) (UniProt P52912). Nature of the test: TIA1 IP-MS, tau KO 2 cortex.
The target is the same in test [2]. Description: TIA1 IP-MS, tau KO 3 cortex.
Test [3] shares this target. Description: TIA1 IP-MS, tau KO 1 cortex.
For test [4] the target is unchanged. Nature of the test: TIA1 IP-MS, WT3 cortex.
Test [5] has the same target. Nature of the test: TIA1 IP-MS, WT1 cortex.
The target is the same in test [6]. Nature of the test: TIA1 IP-MS, WT2 cortex.

Drawing on patent US20190142860A1, “NUCLEIC ACID BASED TIA-1 INHIBITORS” (Aquinnah Pharmaceuticals, Inc., priority 2015, published 2019), this text covers total ion current (normalized to TIA1 = 1000) for 22 substances.

UniProt P52912, sequence (P52912 whole entry): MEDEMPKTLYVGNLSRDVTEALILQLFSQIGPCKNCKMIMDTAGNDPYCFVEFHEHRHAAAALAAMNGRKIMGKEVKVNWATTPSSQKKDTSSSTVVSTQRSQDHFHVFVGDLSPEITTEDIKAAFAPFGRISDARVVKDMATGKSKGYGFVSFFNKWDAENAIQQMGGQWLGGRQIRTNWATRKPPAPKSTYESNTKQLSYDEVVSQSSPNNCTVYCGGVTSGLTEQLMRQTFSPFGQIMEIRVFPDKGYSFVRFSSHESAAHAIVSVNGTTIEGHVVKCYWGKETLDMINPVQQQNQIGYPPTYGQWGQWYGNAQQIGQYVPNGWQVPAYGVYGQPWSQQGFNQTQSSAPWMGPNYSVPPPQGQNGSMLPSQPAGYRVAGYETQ

On to “Catenin beta-1 (from UniProt Q02248 2-781)”, for which the total ion current (normalized to TIA1 = 1000) came out at 0 in test [1]; 0 in test [2]; 123 in test [3]; 0 in test [4]; 9.46 in test [5]; 0 in test [6].

As for “Centromere protein V (from UniProt Q9CXS4 1-252)”, the total ion current (normalized to TIA1 = 1000) in test [1] came to 108; in test [2] it was 0; in test [3] it was 0; in test [4] it was 106; in test [5], 0; in test [6], 234.

As for “Clathrin heavy chain 1 (from UniProt Q68FD5 2-1675)”, the total ion current (normalized to TIA1 = 1000) worked out at 45.2 in test [1]; 0 in test [2]; 0 in test [3]; 0 in test [4]; 0 in test [5]; 58.5 in test [6].

Turning to “Clathrin light chain A (from UniProt O08585 1-235)”, the total ion current (normalized to TIA1 = 1000) in test [1] amounted to 29; in test [2], 0; in test [3], 0; in test [4] it was 145; in test [5], 0; in test [6], 90.8.

With “Cleavage and polyadenylation specificity factor subunit 6 (from UniProt Q6NVF9 1-551)”, the total ion current (normalized to TIA1 = 1000) in test [1] was 76.2; in test [2], 0; in test [3] it was 0; in test [4], 0; in test [5] it was 0; in test [6] it was 147.

Turning to “Cluster of Phosphatidylinositol 5-phosphate 4-kinase type-2 alpha (from UniProt O70172 2-405)”, the total ion current (normalized to TIA1 = 1000) was found to be 6.9 in test [1]; 0 in test [2]; 0 in test [3]; 18.8 in test [4]; 0 in test [5]; 75.3 in test [6].

Regarding “Cluster of Ras-related protein Rab-5C (from UniProt P35278 1-216)”, the total ion current (normalized to TIA1 = 1000) in test [1] is 213; in test [2], 0; in test [3], 0; in test [4], 337; in test [5], 0; in test [6], 210.

As to Coronin-1A (from UniProt O89053 2-461), the total ion current (normalized to TIA1 = 1000) in test [1] turned out to be 31; in test [2], 0; in test [3] it was 0; in test [4], 0; in test [5], 0; in test [6], 74.2.

In the case of “Cytochrome b-c1 complex subunit 1, mitochondrial (from UniProt Q9CZ13 35-480)”, the total ion current (normalized to TIA1 = 1000) in test [1] came to 1030; in test [2], 0; in test [3] it was 0; in test [4], 2460; in test [5], 0; in test [6], 1320.

For the substance “Dihydrolipoyl dehydrogenase, mitochondrial (from UniProt O08749 36-509)”, the total ion current (normalized to TIA1 = 1000) stood at 31.3 in test [1]; 0 in test [2]; 0 in test [3]; 0 in test [4]; 0 in test [5]; 107 in test [6].

For “Dihydrolipoyllysine-residue acetyltransferase component of pyruvate dehydrogenase complex, mitochondrial (from UniProt Q8BMF4 86-642)”, the total ion current (normalized to TIA1 = 1000) was found to be 130 in test [1]; 0 in test [2]; 0 in test [3]; 0 in test [4]; 0 in test [5]; 353 in test [6].

For the substance “Dihydropyrimidinase-related protein 3 (from UniProt Q62188 1-570)”, the total ion current (normalized to TIA1 = 1000) came out at 96 in test [1]; 0 in test [2]; 0 in test [3]; 14.7 in test [4]; 0 in test [5]; 192 in test [6].

Consider “Dual specificity mitogen-activated protein kinase kinase 1 (from UniProt P31938 1-393)”, for which the total ion current (normalized to TIA1 = 1000) is 67.8 in test [1]; 0 in test [2]; 0 in test [3]; 83.7 in test [4]; 0 in test [5]; 108 in test [6].

“Eukaryotic initiation factor 4A-I (from UniProt P60843 2-406)”: the total ion current (normalized to TIA1 = 1000) in test [1] was determined as 121; in test [2], 0; in test [3] it was 0; in test [4], 76.1; in test [5], 0; in test [6], 150.

Regarding “Fructose-bisphosphate aldolase C (from UniProt P05063 2-363)”, the total ion current (normalized to TIA1 = 1000) was determined as 43.2 in test [1]; 0 in test [2]; 0 in test [3]; 41.6 in test [4]; 0 in test [5]; 69.5 in test [6].

For the substance “Glutamate dehydrogenase 1, mitochondrial (from UniProt P26443 54-558)”, the total ion current (normalized to TIA1 = 1000) in test [1] worked out at 365; in test [2], 0; in test [3], 0; in test [4], 162; in test [5] it was 0; in test [6] it was 402.

As to “Glutathione S-transferase Mu 1 (from UniProt P10649 2-218)”, the total ion current (normalized to TIA1 = 1000) came to 91.1 in test [1]; 0 in test [2]; 0 in test [3]; 57.4 in test [4]; 0 in test [5]; 286 in test [6].

Regarding “Glutathione S-transferase P 1 (from UniProt P19157 2-210)”, the total ion current (normalized to TIA1 = 1000) in test [1] was found to be 0; in test [2] it was 0; in test [3], 0; in test [4] it was 0; in test [5], 31.6; in test [6], 0.

As for “Glycerol-3-phosphate dehydrogenase, mitochondrial (from UniProt Q64521 43-727)”, the total ion current (normalized to TIA1 = 1000) is 0 in test [1]; 0 in test [2]; 18.8 in test [3]; 0 in test [4]; 3.01 in test [5]; 0 in test [6].

As to “Guanine deaminase (from UniProt Q9R111 1-454)”, the total ion current (normalized to TIA1 = 1000) was found to be 75.3 in test [1]; 0 in test [2]; 0 in test [3]; 68.5 in test [4]; 0 in test [5]; 0 in test [6].

Take “Guanine nucleotide-binding protein G(z) subunit alpha (from UniProt O70443 2-355)”: the total ion current (normalized to TIA1 = 1000) in test [1] worked out at 0; in test [2], 0; in test [3], 0; in test [4] it was 0; in test [5], 0; in test [6] it was 59.4.

Take “Hemoglobin subunit alpha (from UniProt P01942 2-142)”: the total ion current (normalized to TIA1 = 1000) in test [1] stood at 0; in test [2], 0; in test [3] it was 0; in test [4], 0; in test [5], 0; in test [6], 69.1.
